# Laboratory results taken from PMC10648141, “Screening of Oral Potential Angiotensin-Converting Enzyme Inhibitory Peptides from Zizyphus jujuba Proteins Based on Gastrointestinal Digestion In Vivo” (International Journal of Molecular Sciences, 2023).
# pIC50: −log10 of the molar value. “And” between values parts separate entries of the source, which are not always exact repeats. Equal entries are not always repeated. Where two headings read alike, the source gives them in different places. Residues, ends and D or L forms follow the SMILES beside them. No end group written: not given here.
# Legend:
# [1] = target: T1, ACE (Homo sapiens, UniProt P12821); test: ACE-inhibitory activity assay in vitro (HHL substrate, hippuric acid by HPLC); format: biochemical; settings: for inhibition at 2000 µg/mL: 1 h; for pIC50: five concentrations in triplicate
# T1 construct: purchased Sigma-Aldrich
# T1 sequence (P12821 30-1306, species assumed): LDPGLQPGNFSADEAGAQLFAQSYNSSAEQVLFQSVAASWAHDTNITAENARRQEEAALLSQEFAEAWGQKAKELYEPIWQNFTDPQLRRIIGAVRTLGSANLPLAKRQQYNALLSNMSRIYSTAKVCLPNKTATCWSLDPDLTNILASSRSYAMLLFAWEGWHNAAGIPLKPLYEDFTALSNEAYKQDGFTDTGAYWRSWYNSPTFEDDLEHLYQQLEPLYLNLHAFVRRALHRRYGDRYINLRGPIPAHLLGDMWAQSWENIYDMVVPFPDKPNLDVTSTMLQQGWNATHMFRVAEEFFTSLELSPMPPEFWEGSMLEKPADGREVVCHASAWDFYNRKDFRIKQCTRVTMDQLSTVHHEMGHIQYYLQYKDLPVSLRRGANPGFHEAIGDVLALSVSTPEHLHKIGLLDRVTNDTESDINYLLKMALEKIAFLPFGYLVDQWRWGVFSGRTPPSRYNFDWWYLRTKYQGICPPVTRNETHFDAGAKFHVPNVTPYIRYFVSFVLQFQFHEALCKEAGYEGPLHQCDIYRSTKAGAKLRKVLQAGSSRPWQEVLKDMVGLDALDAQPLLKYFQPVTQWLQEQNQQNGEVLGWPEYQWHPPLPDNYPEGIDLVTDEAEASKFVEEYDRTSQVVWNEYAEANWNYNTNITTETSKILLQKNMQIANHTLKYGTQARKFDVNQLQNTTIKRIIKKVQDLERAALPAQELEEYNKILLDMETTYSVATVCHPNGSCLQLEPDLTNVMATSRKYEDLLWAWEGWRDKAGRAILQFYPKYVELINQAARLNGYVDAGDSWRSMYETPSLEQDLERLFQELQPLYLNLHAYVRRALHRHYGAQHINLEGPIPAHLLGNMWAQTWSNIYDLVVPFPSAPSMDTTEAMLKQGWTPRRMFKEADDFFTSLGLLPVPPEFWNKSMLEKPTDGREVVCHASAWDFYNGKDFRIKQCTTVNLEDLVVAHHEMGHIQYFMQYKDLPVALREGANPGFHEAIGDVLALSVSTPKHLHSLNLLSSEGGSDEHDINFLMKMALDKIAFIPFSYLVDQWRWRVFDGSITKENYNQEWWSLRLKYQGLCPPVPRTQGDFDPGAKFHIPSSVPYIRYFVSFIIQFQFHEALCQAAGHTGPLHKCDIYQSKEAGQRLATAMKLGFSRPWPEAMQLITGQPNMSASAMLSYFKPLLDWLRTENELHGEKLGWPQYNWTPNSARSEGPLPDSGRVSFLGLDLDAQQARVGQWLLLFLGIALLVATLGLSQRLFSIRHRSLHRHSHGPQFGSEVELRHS
# Method: The method used to determine ACE-inhibitory activity was designed according to that of Sangsawad et al. with minor modifications. […] The reaction mixture comprised 50 μL of peptide and 50 μL of ACE (25 mU/mL), undergoing pre-incubation for 5 min at 37 °C. Subsequently, 150 μL of substrate (8.3 mM HHL in 0.1 M Tris-HCl buffer with 500 mM NaCl at pH 8.3) was introduced, and the sample was further incubated at 37 °C for 60 min. Following the completion of the reaction, it was terminated via the addition of 1 M HCl. […] IC50 was used to express the activity of hydrolysate; all analyses were carried out under five different concentrations in triplicate.
# [2] = target: T1, ACE; set-up: method as in our group and the DFBP database; settings: ACE-inhibitory activity used as 3D-QSAR input (training set 34, test set 12 marked *); ref our group and the DFBP database; cited from earlier work
# [3] = Stability of peptides after simulated gastrointestinal digestion in vitro; format: in vitro ADME; settings: pepsin (1000 U/mL) and pancreatin (50 U/mL); peptide 0.5 mg/mL; LC-MS (Q Exactive, ESI positive); peak area after/before digestion × 100
# Method: The stability in vitro digestion followed the method we reported previously with minor modifications. Pepsin (1000 U/mL) and pancreatin (50 U/mL) were used to digest the peptide (0.5 mg/mL). A Q Exactive system (Thermo Fisher Scientific, USA) equipped with ESI in positive ion mode was used for mass spectrometric detection. Stability %=Peak area after digestion sample/Peak area before digestion sample×100%
# [4] = peptide 2 mg/mL, HHL substrate, pH 8.3, 37 °C, 60 min, HPLC of hippuric acid, read-out: ACE Inhibition Rate (%) (2 mg/mL)
# [5] = HHL substrate, pH 8.3, 37 °C, 60 min, HPLC of hippuric acid
Compound,PIC50 [2],other results
N=C(N)NCCC[C@H](NC(=O)[C@H](CCC(=O)O)NC(=O)[C@@H]1CCCN1)C(=O)N[C@@H](CCCCN)C(=O)O [PERK] (H-PERK-OH),–,"inhibition at 2000 µg/mL [1, 4]: 4.5%"
"GIPLPLI [ACEI peptide, 3D-QSAR training set]",-1.87,–
"IGPGLGR [ACEI peptide, 3D-QSAR training set]",-2.32,–
"Tyr-Pro-Gly [ACEI peptide, 3D-QSAR training set]",-1.37,–
"LPQNILP [ACEI peptide, 3D-QSAR test set]",-1.66,–
PRPKPPP [PRPKPPP],–,"inhibition at 2000 µg/mL [1, 4]: 74.8%"
"Pro-Ser-Phe-Gln-Pro (PSFQP) [ACEI peptide, 3D-QSAR training set]",-1.86,–
"His-Cys-His-Thr (HCHT) [ACEI peptide, 3D-QSAR training set]",-2.06,–
"Cys-Cys-Asn-Lys (CCNK) [ACEI peptide, 3D-QSAR training set]",-0.95,–
"TFQGPPHGIQVER [ACEI peptide, 3D-QSAR training set]",-0.53,–
"LVLPGELAK [ACEI peptide, 3D-QSAR training set]",-2.26,–
"YETGNGIK [ACEI peptide, 3D-QSAR training set]",-0.57,–
"Lys-Ser-Val [ACEI peptide, 3D-QSAR training set]",-3.01,–
"PANIKWGD [ACEI peptide, 3D-QSAR training set]",-1.32,–
"ADGLWL [ACEI peptide, 3D-QSAR training set]",-2.45,–
"TYLPVH [ACEI peptide, 3D-QSAR test set]",-0.14,–
KVKPL [KVKPL],–,"inhibition at 2000 µg/mL [1, 4]: -14.2%"
"Val-Leu-Pro-Tyr-Pro (VLPYP) [ACEI peptide, 3D-QSAR training set]",-1.56,–
"LHPGDAQR [ACEI peptide, 3D-QSAR training set]",-1.01,–
TVKPGL [TVKPGL],–,"Simulated Gastrointestinal Digestion Stability % [3]: 90%; inhibition at 2000 µg/mL [1, 4]: 100%; pIC50 [1, 5]: 5.22 and 5.42"
"Asp-Phe-Gly [ACEI peptide, 3D-QSAR training set]",-1.65,–
N=C(N)NCCC[C@H](NC(=O)[C@@H]1CCCN1C(=O)[C@H](Cc1ccccc1)NC(=O)[C@@H](N)CCCNC(=N)N)C(=O)O [RFPR] (H-RFPR-OH),–,"inhibition at 2000 µg/mL [1, 4]: 22.9%"
"CCNKSV (cysteine pairing not given here) [ACEI peptide, 3D-QSAR test set]",-1.18,–
"Leu-Val-Leu [ACEI peptide, 3D-QSAR training set]",-1.09,–
"AHSVRFY [ACEI peptide, 3D-QSAR test set]",-1.21,–
LEKLVT [LEKLVT],–,"inhibition at 2000 µg/mL [1, 4]: 30.5%"
KALVAP [KALVAP],–,"Simulated Gastrointestinal Digestion Stability % [3]: 78%; inhibition at 2000 µg/mL [1, 4]: 100%; pIC50 [1, 5]: 4.77"

Compound,PIC50 [2],other results
"Tyr-Thr-Val-Phe (YTVF) [ACEI peptide, 3D-QSAR training set]",-1.94,–
"LGPLGHQ [ACEI peptide, 3D-QSAR training set]",-0.63,–
"Ala-His-Ser-Val (AHSV) [ACEI peptide, 3D-QSAR training set]",-3.26,–
"GRVSNCAA [ACEI peptide, 3D-QSAR training set]",-1.76,–
"Gln-Val-Gly-Pro (QVGP) [ACEI peptide, 3D-QSAR training set]",-2.21,–
"LPGVLPVA [ACEI peptide, 3D-QSAR test set]",0.11,–
"Leu-Ala-Lys [ACEI peptide, 3D-QSAR test set]",-1.68,–
"FCLYELAR [ACEI peptide, 3D-QSAR training set]",-1.50,–
"PTHIKWGD [ACEI peptide, 3D-QSAR training set]",-0.18,–
"Ser-Leu-Pro-Gln-Asn (SLPQN) [ACEI peptide, 3D-QSAR training set]",-0.98,–
"NMAINPSK [ACEI peptide, 3D-QSAR training set]",-1.78,–
CC(C)C[C@H](NC(=O)[C@H](Cc1c[nH]cn1)NC(=O)[C@H](CC(C)C)NC(=O)[C@@H](N)Cc1ccc(O)cc1)C(=O)O [YLHL] (H-YLHL-OH),–,"inhibition at 2000 µg/mL ([1]; pH 8.3, read-out: ACE Inhibition Rate (%) (2 mg/mL)): 65.4%"
"LVLPGE [ACEI hexapeptide of the authors' previous studies; alignment template, training set]",-1.13,–
"AHSVRF [ACEI peptide, 3D-QSAR test set]",-1.26,–
"Leu-Phe-Arg-Gln (LFRQ) [ACEI peptide, 3D-QSAR test set]",-1.23,–
LEKPLL [LEKPLL],–,"inhibition at 2000 µg/mL [1, 4]: 24.2%"
"Leu-Gln-Lys-Trp (LQKW) [ACEI peptide, 3D-QSAR test set]",-1.54,–
RLPHV [RLPHV],–,"Simulated Gastrointestinal Digestion Stability % [3]: 82%; inhibition at 2000 µg/mL [1, 4]: 100%; pIC50 [1, 5]: 5.42 and 5.22"
"Val-His-Leu-Pro-Pro (VHLPP) [ACEI peptide, 3D-QSAR test set]",-1.26,–
"Phe-Pro-Gln-Tyr (FPQY) [ACEI peptide, 3D-QSAR training set]",-2.48,–
"GYALPHA [ACEI peptide, 3D-QSAR training set]",-1.44,–
"FQKVVAK [ACEI peptide, 3D-QSAR test set]",-0.32,–
"GKDAVIV [ACEI peptide, 3D-QSAR training set]",-1.26,–
"His-Cys-His-Thr-Asn (HCHTN) [ACEI peptide, 3D-QSAR test set]",-1.48,–
"KVREGTTY [ACEI peptide, 3D-QSAR training set]",-2.01,–
"FPEVFGK [ACEI peptide, 3D-QSAR training set]",-2.15,–
"IIAPPER [ACEI peptide, 3D-QSAR training set]",-0.94,–
